This test concerns the target EGFP–TDP-43 (human, UniProt Q13148 1-414). In words: co-IP.

These results are taken from paper doi:10.1101/2025.11.12.687969 (bioRxiv, 2025).

B1: Myc–TDP-43 ΔNLS (natural protein, human, UniProt Q13148-1 1-414, looked up)
chain: MSEYIRVTEDENDEPIEIPSEDDGTVLLSTVTAQFPGACGLRYRNPVSQCMRGVRLVEGILHAPDAGWGNLVYVVNYPKDNAAAMDETDASSAVKVKRAVQKTSDLIVLGLPWKTTEQDLKEYFSTFGEVLMVQVKKDLKTGHSKGFGFVRFTEYETQVKVMSQRHMIDGRWCDCKLPNSKQSQDEPLRSRKVFVGRCTEDMTEDELREFFSQYGDVMDVFIPKPFRAFAFVTFADDQIAQSLCGEDLIIKGISVHISNAEPKHNSNRQLERSGRFGGNPGGFGNQGGFGNSRGGGAGLGNNQGSNMGGGMNFGAFSINPAMMAAAQAALQSSWGMMGMLASQQNQSGPSGNNQNQGNMQREPNQAFGSGNNSYSGSNSGAAIGWGSASNAGSGSGFNGGFGSSMDSKSSGWGM
For B1, the “reduction of the association index relative to WT (log2)” value was 0.77 log2 units.
